# According to PMC4899250 (Journal of neurochemistry, 2016):
# B1: tau^106-144 (peptide)
# peptide: Ac-AGIGDTPSLEDEAAGHVTQARMVSKSKDGTGSDDKKAKG-NH2
# Molecular target: the molecule itself
# Experiment: native MS
protein,measurement,value
B1,stoichiometry N,2
